In the supplement of paper PMC10567573:

B1: NET1 (parent)
chain: PTPAKRRSSALWSEMLDITMKESL
B2: MYBL2 (parent)
chain: IAKHLKGRLGKQCRERWHNHLNPE

Variants of: B1
Experiment: protein stability index of a GFP-peptide fusion (GPS, HEK-293T) (PSI 1-6); higher = more stable
Settings: c terminus: a fixed tail appended
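Also: lentivirally expressed fusions sorted by FACS into six bins by GFP to DsRed ratio, PSI derived from sequencing read proportions per bin multiplied by bin number.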

Variant	protein stability index
PTPAKRRSSALWSEMLDITMKEVL [S23V]	1.88
PTPAKRRSSALWSEMLDITMKEWL [S23W]	3.71
PTPAKRRSSALWSEMLDITMKEYL [S23Y]	1.9
PTPAKRRSSALWSEMLDITMKEQL [S23Q]	2.47
PTPAKRRSSALWSEMLDITMKEPL [S23P]	2.63
PTPAKRRSSALWSEMLDITMKETL [S23T]	1.89
PTPAKRRSSALWSEMLDITMKESG [L24G]	2.47
PTPAKRRSSALWSEMLDITMKESI [L24I]	2.29
PTPAKRRSSALWSEMLDITMKEST [L24T]	2.2
PTPAKRRSSALWSEMLDITMKESF [L24F]	1.89
PTPAKRRSSALWSEMLDITMKESA [L24A]	2.59
PTPAKRRSSALWSEMLDITMKESV [L24V]	2.33
PTPAKRRSSALWSEMLDITMKESW [L24W]	1.36
PTPAKRRSSALWSEMLDITMKESM [L24M]	2.28
PTPAKRRSSALWSEMLDITMKESD [L24D]	2.48
PTPAKRRSSALWSEMLDITMKESK [L24K]	3.05
PTPAKRRSSALWSEMLDITMKESP [L24P]	2.85
PTPAKRRSSALWSEMLDITMKESY [L24Y]	1.88
PTPAKRRSSALWSEMLDITMKESN [L24N]	3.01
PTPAKRRSSALWSEMLDITMKESE [L24E]	1.31
PTPAKRRSSALWSEMLDITMKESC [L24C]	2.6
PTPAKRRSSALWSEMLDITMKESQ [L24Q]	1.92

Variants of: B2
Experiment: as above
Settings: c terminus: a fixed tail appended

Variant	protein stability index
IAKHLKGRKGKQCRERWHNHLNPE [L9K]	2.5
IAKHLKGRTGKQCRERWHNHLNPE [L9T]	1.99
IAKHLKGRQGKQCRERWHNHLNPE [L9Q]	2.06
IAKHLKGRWGKQCRERWHNHLNPE [L9W]	1.67
IAKHLKGRPGKQCRERWHNHLNPE [L9P]	2.28
IAKHLKGREGKQCRERWHNHLNPE [L9E]	2.73
IAKHLKGRHGKQCRERWHNHLNPE [L9H]	2
IAKHLKGRNGKQCRERWHNHLNPE [L9N]	2.31
IAKHLKGRSGKQCRERWHNHLNPE [L9S]	2.55
IAKHLKGRAGKQCRERWHNHLNPE [L9A]	1.76
IAKHLKGRGGKQCRERWHNHLNPE [L9G]	2.45
IAKHLKGRDGKQCRERWHNHLNPE [L9D]	3.01
IAKHLKGRYGKQCRERWHNHLNPE [L9Y]	2.24
IAKHLKGRIGKQCRERWHNHLNPE [L9I]	1.43
IAKHLKGRVGKQCRERWHNHLNPE [L9V]	2.18
IAKHLKGRRGKQCRERWHNHLNPE [L9R]	2.72
IAKHLKGRCGKQCRERWHNHLNPE [L9C]	2.08
IAKHLKGRFGKQCRERWHNHLNPE [L9F]	1.7
IAKHLKGRMGKQCRERWHNHLNPE [L9M]	2.45
IAKHLKWRLGKQCRERWHNHLNPE [G7W]	2.74
IAKHLKFRLGKQCRERWHNHLNPE [G7F]	2.25
IAKHLKTRLGKQCRERWHNHLNPE [G7T]	2.25
IAKHLKRRLGKQCRERWHNHLNPE [G7R]	2.2
IAKHLKYRLGKQCRERWHNHLNPE [G7Y]	2.14

Variant	protein stability index
IAKHLKHRLGKQCRERWHNHLNPE [G7H]	3.17
IAKHLKPRLGKQCRERWHNHLNPE [G7P]	2.14
IAKHLKCRLGKQCRERWHNHLNPE [G7C]	1.6
IAKHLKIRLGKQCRERWHNHLNPE [G7I]	2.31
IAKHLKDRLGKQCRERWHNHLNPE [G7D]	2.61
IAKHLKKRLGKQCRERWHNHLNPE [G7K]	1.77
IAKHLKQRLGKQCRERWHNHLNPE [G7Q]	1.65
IAKHLKLRLGKQCRERWHNHLNPE [G7L]	2.71
IAKHLKVRLGKQCRERWHNHLNPE [G7V]	2.45
IAKHLKERLGKQCRERWHNHLNPE [G7E]	1.88
IAKHLKARLGKQCRERWHNHLNPE [G7A]	2.94
IAKHLKNRLGKQCRERWHNHLNPE [G7N]	1.82
IAKHLKSRLGKQCRERWHNHLNPE [G7S]	2.39
IAKHLKMRLGKQCRERWHNHLNPE [G7M]	1.77
IAKHLKGHLGKQCRERWHNHLNPE [R8H]	1.91
IAKHLKGPLGKQCRERWHNHLNPE [R8P]	2.65
IAKHLKGALGKQCRERWHNHLNPE [R8A]	1.97
IAKHLKGWLGKQCRERWHNHLNPE [R8W]	2.73
IAKHLKGMLGKQCRERWHNHLNPE [R8M]	1.74
IAKHLKGNLGKQCRERWHNHLNPE [R8N]	1.61
IAKHLKGKLGKQCRERWHNHLNPE [R8K]	2.11
IAKHLKGCLGKQCRERWHNHLNPE [R8C]	2.23
IAKHLKGVLGKQCRERWHNHLNPE [R8V]	1.6
IAKHLKGYLGKQCRERWHNHLNPE [R8Y]	1.9

Variant	protein stability index
IAKHLKGILGKQCRERWHNHLNPE [R8I]	1.53
IAKHLKGELGKQCRERWHNHLNPE [R8E]	2.14
IAKHLKGGLGKQCRERWHNHLNPE [R8G]	1.81
IAKHLKGDLGKQCRERWHNHLNPE [R8D]	2.41
IAKHLKGQLGKQCRERWHNHLNPE [R8Q]	1.76
IAKHLKGTLGKQCRERWHNHLNPE [R8T]	1.63
IAKHLKGSLGKQCRERWHNHLNPE [R8S]	1.8
IARHLKGRLGKQCRERWHNHLNPE [K3R]	2.03
IAWHLKGRLGKQCRERWHNHLNPE [K3W]	1.95
IAEHLKGRLGKQCRERWHNHLNPE [K3E]	2
IACHLKGRLGKQCRERWHNHLNPE [K3C]	2.25
IAYHLKGRLGKQCRERWHNHLNPE [K3Y]	2.17
IAMHLKGRLGKQCRERWHNHLNPE [K3M]	1.81
IAVHLKGRLGKQCRERWHNHLNPE [K3V]	2.9
IAHHLKGRLGKQCRERWHNHLNPE [K3H]	2.32
IASHLKGRLGKQCRERWHNHLNPE [K3S]	1.44
IAAHLKGRLGKQCRERWHNHLNPE [K3A]	2.84
IAGHLKGRLGKQCRERWHNHLNPE [K3G]	1.79
IANHLKGRLGKQCRERWHNHLNPE [K3N]	1.8
IADHLKGRLGKQCRERWHNHLNPE [K3D]	2.3
IALHLKGRLGKQCRERWHNHLNPE [K3L]	2.34
IAPHLKGRLGKQCRERWHNHLNPE [K3P]	1.93
IAFHLKGRLGKQCRERWHNHLNPE [K3F]	2.46
IATHLKGRLGKQCRERWHNHLNPE [K3T]	1.81

Variant	protein stability index
IAQHLKGRLGKQCRERWHNHLNPE [K3Q]	2.96
IAIHLKGRLGKQCRERWHNHLNPE [K3I]	1.51
DAKHLKGRLGKQCRERWHNHLNPE [I1D]	2.06
TAKHLKGRLGKQCRERWHNHLNPE [I1T]	2.64
RAKHLKGRLGKQCRERWHNHLNPE [I1R]	2.1
PAKHLKGRLGKQCRERWHNHLNPE [I1P]	2.6
EAKHLKGRLGKQCRERWHNHLNPE [I1E]	2.53
NAKHLKGRLGKQCRERWHNHLNPE [I1N]	2.45
VAKHLKGRLGKQCRERWHNHLNPE [I1V]	2.54
MAKHLKGRLGKQCRERWHNHLNPE [I1M]	2.58
CAKHLKGRLGKQCRERWHNHLNPE [I1C]	1.49
KAKHLKGRLGKQCRERWHNHLNPE [I1K]	2.18
GAKHLKGRLGKQCRERWHNHLNPE [I1G]	2.4
WAKHLKGRLGKQCRERWHNHLNPE [I1W]	1.36
AAKHLKGRLGKQCRERWHNHLNPE [I1A]	2.37
QAKHLKGRLGKQCRERWHNHLNPE [I1Q]	2.64
LAKHLKGRLGKQCRERWHNHLNPE [I1L]	1.67
SAKHLKGRLGKQCRERWHNHLNPE [I1S]	2.17
FAKHLKGRLGKQCRERWHNHLNPE [I1F]	2.7
YAKHLKGRLGKQCRERWHNHLNPE [I1Y]	1.56
HAKHLKGRLGKQCRERWHNHLNPE [I1H]	2.19
IAKHLCGRLGKQCRERWHNHLNPE [K6C]	2.59
IAKHLYGRLGKQCRERWHNHLNPE [K6Y]	1.77
IAKHLEGRLGKQCRERWHNHLNPE [K6E]	1.55

Variant	protein stability index
IAKHLWGRLGKQCRERWHNHLNPE [K6W]	1.27
IAKHLFGRLGKQCRERWHNHLNPE [K6F]	2.94
IAKHLTGRLGKQCRERWHNHLNPE [K6T]	2.21
IAKHLSGRLGKQCRERWHNHLNPE [K6S]	1.81
IAKHLRGRLGKQCRERWHNHLNPE [K6R]	1.67
IAKHLVGRLGKQCRERWHNHLNPE [K6V]	2.45
IAKHLAGRLGKQCRERWHNHLNPE [K6A]	1.7
IAKHLDGRLGKQCRERWHNHLNPE [K6D]	2.46
IAKHLQGRLGKQCRERWHNHLNPE [K6Q]	1.56
IAKHLNGRLGKQCRERWHNHLNPE [K6N]	2.21
IAKHLGGRLGKQCRERWHNHLNPE [K6G]	1.67
IAKHLMGRLGKQCRERWHNHLNPE [K6M]	1.97
IAKHLPGRLGKQCRERWHNHLNPE [K6P]	2.03
IAKHLHGRLGKQCRERWHNHLNPE [K6H]	1.91
IAKHLLGRLGKQCRERWHNHLNPE [K6L]	4.25
ISKHLKGRLGKQCRERWHNHLNPE [A2S]	2.1
IIKHLKGRLGKQCRERWHNHLNPE [A2I]	1.59
IEKHLKGRLGKQCRERWHNHLNPE [A2E]	2.16
IKKHLKGRLGKQCRERWHNHLNPE [A2K]	2.12
IHKHLKGRLGKQCRERWHNHLNPE [A2H]	2.04
IMKHLKGRLGKQCRERWHNHLNPE [A2M]	1.6
IRKHLKGRLGKQCRERWHNHLNPE [A2R]	2.53
ILKHLKGRLGKQCRERWHNHLNPE [A2L]	3.74
IWKHLKGRLGKQCRERWHNHLNPE [A2W]	1.64

Variant	protein stability index
IGKHLKGRLGKQCRERWHNHLNPE [A2G]	1.95
IPKHLKGRLGKQCRERWHNHLNPE [A2P]	1.75
ICKHLKGRLGKQCRERWHNHLNPE [A2C]	1.8
ITKHLKGRLGKQCRERWHNHLNPE [A2T]	2.37
IVKHLKGRLGKQCRERWHNHLNPE [A2V]	1.53
IDKHLKGRLGKQCRERWHNHLNPE [A2D]	2.15
IQKHLKGRLGKQCRERWHNHLNPE [A2Q]	2.03
IYKHLKGRLGKQCRERWHNHLNPE [A2Y]	1.76
INKHLKGRLGKQCRERWHNHLNPE [A2N]	2.2
IAKHCKGRLGKQCRERWHNHLNPE [L5C]	1.9
IAKHAKGRLGKQCRERWHNHLNPE [L5A]	2.18
IAKHTKGRLGKQCRERWHNHLNPE [L5T]	2.35
IAKHSKGRLGKQCRERWHNHLNPE [L5S]	2.29
IAKHWKGRLGKQCRERWHNHLNPE [L5W]	1.84
IAKHDKGRLGKQCRERWHNHLNPE [L5D]	2.7
IAKHFKGRLGKQCRERWHNHLNPE [L5F]	1.67
IAKHGKGRLGKQCRERWHNHLNPE [L5G]	2.04
IAKHIKGRLGKQCRERWHNHLNPE [L5I]	1.75
IAKHHKGRLGKQCRERWHNHLNPE [L5H]	2.51
IAKHNKGRLGKQCRERWHNHLNPE [L5N]	2.38
IAKHRKGRLGKQCRERWHNHLNPE [L5R]	2.7
IAKHVKGRLGKQCRERWHNHLNPE [L5V]	2.18
IAKHMKGRLGKQCRERWHNHLNPE [L5M]	1.72
IAKHKKGRLGKQCRERWHNHLNPE [L5K]	2.49

Variant	protein stability index
IAKHYKGRLGKQCRERWHNHLNPE [L5Y]	1.86
IAKHEKGRLGKQCRERWHNHLNPE [L5E]	2.49
IAKHQKGRLGKQCRERWHNHLNPE [L5Q]	1.87
IAKHPKGRLGKQCRERWHNHLNPE [L5P]	2.07
IAKCLKGRLGKQCRERWHNHLNPE [H4C]	3.5
IAKALKGRLGKQCRERWHNHLNPE [H4A]	2.33
IAKKLKGRLGKQCRERWHNHLNPE [H4K]	2.12
IAKLLKGRLGKQCRERWHNHLNPE [H4L]	2.33
IAKQLKGRLGKQCRERWHNHLNPE [H4Q]	2.27
IAKFLKGRLGKQCRERWHNHLNPE [H4F]	2.52
IAKTLKGRLGKQCRERWHNHLNPE [H4T]	1.87
IAKWLKGRLGKQCRERWHNHLNPE [H4W]	1.76
IAKYLKGRLGKQCRERWHNHLNPE [H4Y]	4.85
IAKMLKGRLGKQCRERWHNHLNPE [H4M]	1.83
IAKRLKGRLGKQCRERWHNHLNPE [H4R]	2.17
IAKVLKGRLGKQCRERWHNHLNPE [H4V]	3.2
IAKGLKGRLGKQCRERWHNHLNPE [H4G]	2.2
IAKNLKGRLGKQCRERWHNHLNPE [H4N]	1.57
IAKSLKGRLGKQCRERWHNHLNPE [H4S]	1.73
IAKDLKGRLGKQCRERWHNHLNPE [H4D]	2.74
IAKPLKGRLGKQCRERWHNHLNPE [H4P]	2.15
IAKELKGRLGKQCRERWHNHLNPE [H4E]	2.04
